Source: the supplement of paper PMC10567573

B1: CASP6 (parent)
chain: TCADRDNLTRRFSDLGFEVKCFND
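Further: lentivirally expressed fusions sorted by FACS into six bins by GFP to DsRed ratio, PSI derived from sequencing read proportions per bin multiplied by bin number.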

Variants of: B1
Experiment: protein stability index of a GFP-peptide fusion (GPS, HEK-293T) (PSI 1-6); higher = more stable
Settings: c terminus: a fixed tail appended
With TCADRDNLTRRFSDLGFEVKCTND [F22T] the protein stability index was 4.73.
In the case of TCADRDNLTRRFSDLGFEVKCWND [F22W], the protein stability index is reported as 3.28.
With TCADRDNLTRRFSDLGFEVKCIND [F22I] the protein stability index was 3.9.
TCADRDNLTRRFSDLGFEVKCYND [F22Y] showed a protein stability index of 3.98.
TCADRDNLTRRFSDLGFEVKCNND [F22N] gave a protein stability index of 4.58.
TCADRDNLTRRFSDLGFEVKCHND [F22H] showed a protein stability index of 3.86.
With TCADRDNLTRRFSDLGFEVKCMND [F22M] the protein stability index was 3.96.
For TCADRDNLTRRFSDLGFEVKCEND [F22E], the protein stability index was 4.46.
TCADRDNLTRRFSDLGFEVKCKND [F22K] gave a protein stability index of 4.72.
TCADRDNLTRRFSDLGFEVKCSND [F22S] showed a protein stability index of 3.84.
TCADRDNLTRRFSDLGFEVKCPND [F22P] showed a protein stability index of 4.32.
In the case of TCADRDNLTRRFSDLGFEVKCAND [F22A], the protein stability index is reported as 4.54.
TCADRDNLTRRFSDLGFEVKCCND [F22C] gave a protein stability index of 3.83.
In the case of TCADRDNLTRRFSDLGFEVKCDND [F22D], the protein stability index is reported as 4.95.
Variant TCADRDNLTRRFSDLGFEVKCLND [F22L] has a protein stability index of 3.89.
TCADRDNLTRRFSDLGFEVKCRND [F22R] showed a protein stability index of 3.73.
Work on TCADRDNLTRRFSDLGFEVKCVND [F22V] yielded a protein stability index of 3.93.
In the case of TCADRDNLTRRFSDLGFEVKCQND [F22Q], the protein stability index is reported as 4.15.
For TCADRDNLTRRFSDLGFEVKCGND [F22G], the protein stability index was 3.37.
TCADRDNLTRRFSDCGFEVKCFND [L15C] gave a protein stability index of 2.58.
For TCADRDNLTRRFSDYGFEVKCFND [L15Y], the protein stability index was 3.02.
In the case of TCADRDNLTRRFSDNGFEVKCFND [L15N], the protein stability index is reported as 3.94.
Variant TCADRDNLTRRFSDHGFEVKCFND [L15H] has a protein stability index of 3.65.
TCADRDNLTRRFSDMGFEVKCFND [L15M] gave a protein stability index of 3.85.
With TCADRDNLTRRFSDAGFEVKCFND [L15A] the protein stability index was 3.16.
With TCADRDNLTRRFSDPGFEVKCFND [L15P] the protein stability index was 4.59.
In the case of TCADRDNLTRRFSDKGFEVKCFND [L15K], the protein stability index is reported as 4.11.
TCADRDNLTRRFSDGGFEVKCFND [L15G] showed a protein stability index of 3.69.
With TCADRDNLTRRFSDDGFEVKCFND [L15D] the protein stability index was 3.92.
TCADRDNLTRRFSDIGFEVKCFND [L15I] showed a protein stability index of 2.91.
Work on TCADRDNLTRRFSDTGFEVKCFND [L15T] yielded a protein stability index of 4.13.
With TCADRDNLTRRFSDWGFEVKCFND [L15W] the protein stability index was 2.75.
TCADRDNLTRRFSDQGFEVKCFND [L15Q] gave a protein stability index of 3.43.
Work on TCADRDNLTRRFSDEGFEVKCFND [L15E] yielded a protein stability index of 4.57.
With TCADRDNLTRRFSDFGFEVKCFND [L15F] the protein stability index was 3.07.
For TCADRDNLTRRFSDVGFEVKCFND [L15V], the protein stability index was 3.15.
TCADRDNLTRRFSDRGFEVKCFND [L15R] gave a protein stability index of 3.27.
Variant TCADRDNLTRRFSDSGFEVKCFND [L15S] has a protein stability index of 4.02.
In the case of TCADRDNLTRRFSDLMFEVKCFND [G16M], the protein stability index is reported as 2.14.
With TCADRDNLTRRFSDLLFEVKCFND [G16L] the protein stability index was 1.89.
In the case of TCADRDNLTRRFSDLEFEVKCFND [G16E], the protein stability index is reported as 3.83.
Work on TCADRDNLTRRFSDLAFEVKCFND [G16A] yielded a protein stability index of 2.99.
In the case of TCADRDNLTRRFSDLCFEVKCFND [G16C], the protein stability index is reported as 3.18.
Work on TCADRDNLTRRFSDLWFEVKCFND [G16W] yielded a protein stability index of 1.93.
With TCADRDNLTRRFSDLSFEVKCFND [G16S] the protein stability index was 3.26.
With TCADRDNLTRRFSDLHFEVKCFND [G16H] the protein stability index was 2.84.
For TCADRDNLTRRFSDLTFEVKCFND [G16T], the protein stability index was 3.04.
In the case of TCADRDNLTRRFSDLKFEVKCFND [G16K], the protein stability index is reported as 2.68.
Variant TCADRDNLTRRFSDLNFEVKCFND [G16N] has a protein stability index of 3.61.
Variant TCADRDNLTRRFSDLRFEVKCFND [G16R] has a protein stability index of 3.13.
Variant TCADRDNLTRRFSDLDFEVKCFND [G16D] has a protein stability index of 3.33.
Work on TCADRDNLTRRFSDLPFEVKCFND [G16P] yielded a protein stability index of 3.54.
TCADRDNLTRRFSDLVFEVKCFND [G16V] gave a protein stability index of 1.92.
Variant TCADRDNLTRRFSDLYFEVKCFND [G16Y] has a protein stability index of 2.27.
TCADRDNLTRRFSDLIFEVKCFND [G16I] showed a protein stability index of 1.92.
In the case of TCADRDNLTRRFSDLFFEVKCFND [G16F], the protein stability index is reported as 2.03.
In the case of TCADRDNLTRRFSDLQFEVKCFND [G16Q], the protein stability index is reported as 3.31.
TCADRDNLTRRFSDLGFEVKYFND [C21Y] gave a protein stability index of 2.97.
Work on TCADRDNLTRRFSDLGFEVKPFND [C21P] yielded a protein stability index of 3.17.
Work on TCADRDNLTRRFSDLGFEVKAFND [C21A] yielded a protein stability index of 3.53.
TCADRDNLTRRFSDLGFEVKMFND [C21M] gave a protein stability index of 3.2.
TCADRDNLTRRFSDLGFEVKNFND [C21N] showed a protein stability index of 3.82.
Work on TCADRDNLTRRFSDLGFEVKEFND [C21E] yielded a protein stability index of 4.3.
In the case of TCADRDNLTRRFSDLGFEVKGFND [C21G], the protein stability index is reported as 3.5.
For TCADRDNLTRRFSDLGFEVKVFND [C21V], the protein stability index was 2.67.
For TCADRDNLTRRFSDLGFEVKSFND [C21S], the protein stability index was 4.01.
TCADRDNLTRRFSDLGFEVKFFND [C21F] showed a protein stability index of 2.16.
Work on TCADRDNLTRRFSDLGFEVKDFND [C21D] yielded a protein stability index of 4.17.
TCADRDNLTRRFSDLGFEVKHFND [C21H] showed a protein stability index of 3.72.
Variant TCADRDNLTRRFSDLGFEVKKFND [C21K] has a protein stability index of 4.2.
TCADRDNLTRRFSDLGFEVKRFND [C21R] gave a protein stability index of 3.72.
TCADRDNLTRRFSDLGFEVKLFND [C21L] showed a protein stability index of 2.85.
In the case of TCADRDNLTRRFSDLGFEVKQFND [C21Q], the protein stability index is reported as 4.05.
Variant TCADRDNLTRRFSDLGFEVKTFND [C21T] has a protein stability index of 3.98.
Work on TCADRDNLTRRFSDLGFEVKIFND [C21I] yielded a protein stability index of 2.52.
Work on TCADRDNLTRRFSDLGFEVKWFND [C21W] yielded a protein stability index of 2.63.
Work on TCADRDNLTRRFSDLGFPVKCFND [E18P] yielded a protein stability index of 3.49.
TCADRDNLTRRFSDLGFRVKCFND [E18R] showed a protein stability index of 3.14.
TCADRDNLTRRFSDLGFVVKCFND [E18V] gave a protein stability index of 2.82.
In the case of TCADRDNLTRRFSDLGFYVKCFND [E18Y], the protein stability index is reported as 2.29.
TCADRDNLTRRFSDLGFAVKCFND [E18A] gave a protein stability index of 3.25.
In the case of TCADRDNLTRRFSDLGFFVKCFND [E18F], the protein stability index is reported as 1.78.
TCADRDNLTRRFSDLGFCVKCFND [E18C] gave a protein stability index of 2.76.
TCADRDNLTRRFSDLGFNVKCFND [E18N] showed a protein stability index of 3.44.
Variant TCADRDNLTRRFSDLGFMVKCFND [E18M] has a protein stability index of 2.22.
For TCADRDNLTRRFSDLGFDVKCFND [E18D], the protein stability index was 3.86.
With TCADRDNLTRRFSDLGFSVKCFND [E18S] the protein stability index was 2.89.
Variant TCADRDNLTRRFSDLGFGVKCFND [E18G] has a protein stability index of 2.87.
With TCADRDNLTRRFSDLGFQVKCFND [E18Q] the protein stability index was 3.1.
Work on TCADRDNLTRRFSDLGFHVKCFND [E18H] yielded a protein stability index of 2.48.
TCADRDNLTRRFSDLGFWVKCFND [E18W] gave a protein stability index of 2.55.
TCADRDNLTRRFSDLGFIVKCFND [E18I] showed a protein stability index of 2.65.
TCADRDNLTRRFSDLGFTVKCFND [E18T] showed a protein stability index of 3.05.
With TCADRDNLTRRFSDLGFKVKCFND [E18K] the protein stability index was 3.3.
